Results as given in US20260258115A1 (MAPP BIOPHARMACEUTICAL, published 2026).

Columns and labels:
Experiment in all cases: BLI, IgG
[1] = target: RSV prefusion F (preF), subtype A (respiratory syncytial virus, subtype A, UniProt P03420 26-513)
[2] = target: T1, RSV postfusion F (postF), subtype A (respiratory syncytial virus, subtype A, UniProt P03420 26-513)
T1 construct: also called F ΔFP; Postfusion subtype A

[3] = target: RSV prefusion F (preF), subtype B (respiratory syncytial virus, subtype B)
[4] = target: T2, RSV postfusion F (postF), subtype B (respiratory syncytial virus, subtype B)
T2 construct: also called F ΔFP; Postfusion subtype B

| Binder | Kd [1] | Kd [2] | Kd [3] | Kd [4] | binding result [1] |
| --- | --- | --- | --- | --- | --- |
| ADI-21039 (antibody, V domains shown) VH: EVQLVQSGAEVKKPGASVKVSCKASGYTFISYYIHWVRQAPGQGLEWMGVINPSGGITDYAPKFQGRVSMTRDTSTRTVYLELSSLRSDDTAVYYCARDLCITTSCPRYYDYAWRSYRSEGYFDSWGQGTLVTVSS VL: not shown | 1.71 nM | 0.24 nM | 12.7 nM | 6.31 nM | – |
| ADI-21046 (antibody, V domains shown) VH: EVQLVESGAEAKKPGESLRISCTVSGYSFSKYWVGWVRQTPGKGLEWMGIIDPTDSDTRYSPSFQGQVTISVDNSINTAYLQWSSLKASDTAIYYCARRGQAKCVGNCPRDFMDVWGKGTTVTVSS VL: SYVLTQPPSVSGAPGQRVTISCAGSSSNIGAGYEVHWYQQLPGTAPKLLIYANRNRPSGVPDRFSGSRSGTSASLAISGLQAEDEADYYCQSYDNNLSGSWVFGGGTKLTVL | 1.66 nM | 0.187 nM | 0.694 nM | 0.224 nM | – |
| ADI-21003 (antibody, V domains shown) VH: QVQLQQWGAGLLKPSETLSLSCAVSGGSFSGYYWTWIRQPPGKGLEWIGEINHSGSTNYNPSLKSRVTISVDTSKNQFSLKLSSVTAADTAVYYCARARYFDYLAHWSFDLWGRGTLVTVSS VL: not shown | 4.75 nM | 0.44 nM | 0.987 nM | 0.421 nM | – |
| ADI-21026 (antibody, V domains shown) VH: QVQLVQSGPGLVKPSQTLSLTCTVSGVSISSGGFYWSWIRQHPGKGLEWIGHIYYSRSTYYNPSLKSRVTMSLNMSKNQFSLRLSSVTAADTAVYYCARERREWLHGELDYWGQGTTVTVSS VL: DIQMTQSPDSLAVSLGEGATINCKSSQSVLDSSKNKNYLAWYQQRPGQPPKLLISWASTRESGVPDRFSGSGSGTDFTLTISSLQAEDVAVYSCQQYFSPPATFGQGTKLEIK | 6.35 nM | 0.945 nM | 3.99 nM | 1.43 nM | – |
| ADI-21022 (antibody, V domains shown) VH: EVQLVETGPGLVKPSETLSLTCSVSGGSISSYYWSWLRQPPGKGLEWIGYIYNSGRTNYNPSLRSRVTISVDTSQNQFSLRLGSVTAADTAVYYCARGGAGDDLLRGSYRYLNFWGQGTLVTVSS VL: QSVLTQPPSVSVAPGQTARITCGGNNIGSKSVHWYQQKPGQAPVLVVYDDTERPSGIPERISGSNSGNTATLTISRVEAGDEADYYCQVWDSSSDHPDLLFGGGTKLTVL | – | 0.256 nM | 17.4 nM | 0.357 nM | no binding |
| ADI-21047 (antibody, V domains shown) VH: QVQLQQWGAGLLKPSETLSLTCAVYGGSFSGKYWSWIRQPPGKGLEWIGEFNHDGTTYYNPSLKSRVTISADTPKNQFSLTLHSVTAADTAVYYCARLTILSDWGQGTLVTVSS VL: DIRMTQSPSSLSASVGDRVTITCQASQDISNYLHWYQQKPGKAPKLLIYDASNLETGVPSRFSGSGSGTDFTFTIHSLQPEDLATYYCQQYYDLPRTFGQGTKLEIK | 2.11 nM | 0.29 nM | 0.756 nM | 0.262 nM | – |
| ADI-21019 (antibody, V domains shown) VH: EVQLLESGGGLVRPGGSLRLSCAVSGFTFSGNALTWIRRAPGKGLEWVSTIGDSGGGSYYADSVKGRFTISRDNSKSTLYLQMNSLTAEDTAVYYCARDPYGDYRDYYGIDVWGQGTTVTVSS VL: EIVMTQSPLSLPVTPGEPASISCRSSQSLRHSNGYNYVDWYLQKPGQSPQLLIYLGSNRASGVPDRFRGSGSGTDFTLKISRVEAEDVGVYYCMQALQTPLTFGQGTKVEIK | 0.182 nM | 0.154 nM | 0.962 nM | 0.168 nM | – |
| ADI-21008 (antibody, V domains shown, also called Ab 259) VH: QVQLQESGAGLLKPSETLSLTCTVYGGTFSGYHWNWIRQPPGKGLEWIGEINHRENTDYNASLESRVTISVDTSKRQFSLKMNSVTVADTAVYYCARGIQVLTNLGTEVRVHQFLDLWGRGTLVTVSS VL: DIVLTQTPATLSLSPGERATLSCRASQSVSTYLAWYQQKPGQAPRLLIYDASNRAAGIPARFSGSGSGTDFTLTISSLEPEDFAVYYCQQRTNWLPLTFGGGTKVDIK | 5.68 nM | 0.918 nM | 4.14 nM | 1.45 nM | – |
| ADI-21001 (antibody, V domains shown) VH: EVQLVESGPGLVKPSETLSLTCTVSGGSISDIDYYWGWIRQPPGKGLEWIGSIYYSGSTYYNPSLESRVTISVDTSKNQFSLKLRSVSAADTALYHCARHGPPWVVTAIRGHAFDVWGQGTTVTVSS VL: not shown | 2.12 nM | 0.277 nM | 1.85 nM | 0.302 nM | – |
| ADI-21042 (antibody, V domains shown, also called Ab 290) VH: EVQLVESGPRLVKPSQTLSLTCNVSGVPVNTGGYYWSWIRRHPIKGLEWIGYIYYSGSTHYNPSLRGRATMSVDTSKNQFSLRLSSVTAADTAVYYCAKDTITVLRGVAKKGVFDPWGQGILVTVSS VL: DIQMTQSPSTLSASVGDRVIITCRASQSISSWLAWYQYKPGKAPNLLIYKATTLDSGVPSRFSGSGSGTEFTLTISSLQPDDFATYYCQQYDSYPTFGQGTKVEIK | 2.96 nM | 0.287 nM | 1.18 nM | 0.398 nM | – |
| ADI-21000 (antibody, V domains shown) VH: EVQLVESGPVLVKPRGTLTLTCTVSGFSLSDARMGVSWIRQPPGKALEWLAHIFWDDEKSYSTSLKNRLTISKDTSRGQVVLRMTNMDPVDTGTYFCARVNTYHSGGYYLYYFDVWGQGTLVTVSS VL: EIVLTQSPSSLSASVGDRVTITCRASQIIASYLNWYQQKPGQAPKLLIYAASSLQSGVPSRFSGSGSGTDFTLTISSLQPEDFATYYCQQSYSTRMYTFGQGTKVEIK | 1.49 nM | 0.295 nM | 1.3 nM | 0.602 nM | – |
| ADI-21002 (antibody, V domains shown) VH: QVQLVESGPGLVKPSGTLSLTCAVSGDSINSGNWWNWVRQAPGKGLEWIGEIYHRGTSNYNPSLKSRVTISVDQSKNQFSLKVTSLTAADTAIYYCARARGYSSGPSYYYYLDVWGKGTLVTVSS VL: EIVMTQSPSSLSASVGDRVTISCRASQSISTYLNWYQQKPGKAPKVIIYGASNLQSGVPSRFSGSGSGTDFTLTISSLQPEDFATYYCQKSFNPCVFGQGTKVDIK | 2.36 nM | 0.214 nM | 8.6 nM | 6.39 nM | – |
| ADI-21007 (antibody, V domains shown) VH: QVQLVQSGADVKKPGASVKVSCKSSGYTFSNHSMHWVRQAPGQGLEWMGRIHPSSGTTTYAQKFQGRVTMTRDTSTSTVYMEVSSLRSEDTAVYYCARSPFFDFDFWGQGTMVTVSS VL: SYVLTQPHSVSESPGKTVTISCTRSSGSIASNYVQWYQQRPGSAPTSVIYEDNQRPSGVPDRFSGSIDSTSNSASLTISGLKTEDEADYYCQSYYSSGWVFGGGTKLTVL | 1.48 nM | 0.171 nM | 1.72 nM | 0.171 nM | – |
| ADI-21037 (antibody, V domains shown) VH: QVQLVQSGGGVVQPGRSLRLSCAASGFPFSSYAMHWVRQAPGKGLEWVAVIWYPGGEKYSADSVTGRFTISRDNSKNTLYLQMSSLRVEDTAVYYCARRSVGAFDYWGQGTLVTVSS VL: DIQMTQSPLSLPVTPGEPASISCRSSQSLLNSNGYNYLDWYLQKPGQSPQVLIYLGSHRASGVPDRFSGSGSGTDFTLRISRVEAEDVGVYYCMQAVQTPYTFGQGTKVEIK | 1.95 nM | 0.248 nM | 4.81 nM | 3.17 nM | – |
| ADI-21043 (antibody, V domains shown) VH: QVQLVQSGAEVKKPGASVKVSCKASGYTFTSYGITWVRQAPGQGLEWMGWISTYNGKTNYAQKFKGRVTMTTDTSTSTAYVELTSLRSDDTAVYYCAREFPTRIVDSFYMDVWGKGTTVTVSS VL: SYELTQPPSVSVAPGQTARITCGGSNIGSETVHWYQQKPGQAPVLVVYGDSDRPSGIPERFSGSNSGNTATLTISRVEAGDEADYYCQVWDSRSDDFHVFGSGTKLTVL | 0.111 nM | 1.65 nM | 0.154 nM | 1.93 nM | – |
| ADI-21011 (antibody, V domains shown) VH: QVQLQESGPGLVKPSETLSLSCTASGDSISDYYWSWIRQPPGKGLEWIGFVSDTWGTNYSPSLTSRVAISLDTSRSQVSLRLRSVTAADTAVYYCVRTHLYDRGGYYLYYFDYWGQGTLVTVSS VL: DIRMTQSPPSLSASVGDRVTITCRASQRIASYLNWYQQKPDTAPKLLIYAASNLQTGVPSRFSGSGSGTDFTLTISSLQPEDFATYYCQQSYSTPYTFGQGTKLEIK | 1.41 nM | 0.162 nM | 0.982 nM | 0.356 nM | – |
| ADI-21012 (antibody, V domains shown) VH: QVQLVQSGPAVVKPTQTLTLTCSFSGFSLSTSRMSVSWIRQPPGKALEWLARIDWDGDKYYSTSLKSRLTISKDTSKNQVVLTMTNMDPVDTATYYCARGSYYVSSGYYLNYFDYWGQGTLVTVSS VL: DIRMTQSPSSLSASVGDRVTITCRTSQTIASYLNWYQQKPGKAPNLLIYAASILQTGVPSRFSGSGSGTDFTLTISSLQPEDFATYYCQQSYGTPQTFGQGTKVEIK | 0.371 nM | 0.214 nM | 1.92 nM | 0.28 nM | – |
| ADI-21004 (antibody, V domains shown) VH: QVQLQESGGGVVQPGRSLTLSCAASGFTFSSYGMHWVRQAPGKGLDWVAEIWYDGSNKYYVDSVKGRFTISRDNSKNTLYLQMKSLRAEDTAIYYCARDGGYESPFFDKWGQGTLVTVSS VL: EIVMTQSPDSLGVSLGERATINCKSSQSLYTSNHENSLAWYQQKPGQPPRLLIYWASTRELGVPDRFSGSGSGTDFTLTISSLQAEDVAVYYCQQYHTTPLTFGPGTKVEIK | 4.59 nM | 0.54 nM | 10.2 nM | 0.798 nM | – |
| ADI-20996 (antibody, V domains shown) VH: QVQLVESGPALVKPTQTLTLTCTFSGFSLTTRGMCVSWIRQPPGKALEWLARIDWDDDKYYSTSLKTRLTISKDTSKNQVVLTMTNMDPVDTATYYCARASTLTTAGYYLHYKDVWGNGTTVTVSS VL: DIRMTQSPSSLSASVGDRVTITCRASQSIGTYLNWFQQKPGKAPNLLIYAASILHSGVPSRFSGSGSGTDFTLTIRTLQPEDFATYYCQQSYPTVTFGQGTKVEIK | 1.03 nM | 0.204 nM | 1.06 nM | 1.12 nM | – |
